Literature values in paper PMC12030383, “Pharmacokinetics, Pharmacodynamics, and Bioequivalence of Test Insulin Glargine Versus Reference Preparation (Lantus®) in Healthy Male Volunteers—By Euglycemic Clamp Technique” (Pharmaceutics, 2025).

Procedure: After subcutaneous injection, the acidic solution in insulin is neutralized so that the insulin analog forms a precipitated microscopic deposit at the injection site, thus allowing for a slow and continuous release of insulin glargine from the injection site into the bloodstream, resulting in a smooth and predictable blood concentration without peaks for up to 24 h. Therefore, insulin glargine can be administered ...

## Insulin glargine
Acidic solutions
  solubility in acidic solutions: completely soluble
Neutral solutions
  solubility in neutral solutions: low solubility
